Test results taken from the DeepSol protein solubility set.

Assay: soluble on expression in E. coli; label from the status in PepcDB or PDB records

Sequence | soluble on expression in E. coli
MAHHHHHHMAASANGSTKGSETDLPIGKDGTTLHLKCKSDELADRIIFVGDPGRVDVISGYFDKDSIRASRDHREIRFATGTYKGTPVTVISTGMGVDNIEIVLNEIHALKEYDMERGQWRHRKGDADAPSAGPFFDPSTMKIIRLGTCGSPAESVPPLALAVTRHAIGMDNTSLYYSAGTRETSKDQQEIRRIVREQTGLRAIDIYTSMAHPNITKSICAACDAHNAATGSEADKQQYVIGTTATASGFYGCQGRRVGRFMKHLTVPNMVEELGSLKFNLSNGVEVVTNIEMETSAICYLSDMLGYQAGAACVVVSKRVGEKKMFLGDQLDAAMKRCIKIILEALVSA | soluble
MLPLPLIANGKGFIRALENDGALAVYAPLEGGYEGRYQRRLRANGYASISLSARGLGDVEAYLMQVHGVRPAHLGKKNIAQEGAVGPIYFAQPIAGYQLENLPAQSKGLVLWILEGYILSQTEIQDLISLTKRVPKLKVVLEMGGDRVFRWQPLLDCLQAALEHHHHHH | soluble
MGSDKIHHHHHHMTLRARIQTAVSLVYPARCLNCGGLVESDFGLCGACWRDTTFISGLVCEGCGAPLPGEDDGQMVHCDACLRAPGEWDRGRAALVYTGQGRRLVLALKHGDRTDLVRPASAWMARAARVLLSPKPLLVPVPLHWTRLLHRRYNQSALLAQAIAAREECDCCPDALIRVAKTPMLEGYSRSERRALLSDAIRPNPRMASRLKGRRVLLVDDVMTSGSTLSACARACMDAGAKSTNVAVLARVTGS | not soluble
MSLSSDRLIYLPLGGAGEIGMNAYVYGYGKPGKERLILVDLGVTFPDMDTTPGVDLIMPDIAWLAKNRDRLEAVFITHAHEDHVGAVAHLYDRLGAPVYARAFTANIARRKMGEHGHPDEAVTTVSAWPEMTEAGPFQVGFVPLSHSIPESSGLVIDTPAGRIVHSGDFKLDENPIVGEAFDRKLWEEVAKPGVKVFACDSTNVMSRHPGRSESSVGGEIEKLVGTAEGVFVATTFASNVARVLTLAEAGQRAGRSVCLLGRAMRRMIEAAIETGVLADFPRTVSPEDARNIPRENLMLIVTGSQGERRAASAQLANGKYQGIELKEGDMFLFSSKTIPGNERGVLRIVNQLSEKGVDVIDDSSGLYHVSGHANRPDLETMHEILQPEILVPMHGEHRHLREHVKLADKRGIKGILAVNGMMIDLTGEGHHHHHH | soluble
MKTGPLNESELEWLDDILTKYNTDHAILDVAELDGLLTAVLSSPQEIEPEQWLVAVWGGADYVPRWASEKEMTRFMNLAFQHMADTAERLNEFPEQFEPLFGLREVDGSELTIVEEWCFGYMRGVALSDWSTLPDSLKPALEAIALHGTEENFERVEKMSPEAFEESVDAIRLAALDLHAYWMAHPQEKAVQQPIKAEEKPGRNDPCPCGSGKKFKQCCLH | not soluble
MLVTGLEILRKARAEGYGVGAFNTNNMEFTQAILEAAEEMKSPVILALSEGAMKYGGRALTRMVVALAQEARVPVAVHLDHGSSYESVLKALREGFTSVMIDKSHEDFETNVRETKRVVEAAHAVGVTVEAELGRLAGIEEHVAVDEKDALLTNPEEARIFMERTGADYLAVAIGTSHGAYKGKGRPFIDHPRLARIAELVPAPLVLHGASAVPQELVERFRAAGGEIGEASGIHPEDIKKAISLGIAKINTDTDLRLAFTALVRETLGKNPKEFDPRKYLGPAREAVKEVVKSRMELFGSVGRA | soluble
MSSYDIAIIGGGISGVGIAQYAAAAGYSTLLIEKGEIGGQTSANSSKLIHGGLRYLESGQINLVRKSLLERRNLLDLAPSLVKPVAFYIPVYQDSRRNPLTIRAGLSLYALLSEFDPLGRFVSIPAVHWHRFKGLKLSGLKAVFQYWDAQTDDKLLTQAVARSAQALGAHIYAEAEFLQLNHLKEQIELSFRHRGEVQQIETKLVINAAGPWVNEVLAHVEPPLAGVEIDWVQGAHLLLDLPAPEGILYLESCFDKRVIFVMPWYGQMLIGTTETVLTSIDTPPQVTESETQYLLGIYCHYFPLSPSIEELKTKIVQTYCGVRVLPKQASSAFERPRDTLMQTSISHPRLLCLYGGKLTTFRSSSAEVLEWIEQKLGKRQPIADIDTLKLTLEHHHHHH | not soluble
MKIWSKEEVVNKLHEIKNKGYLSVPTDMFRTDDGVVGQILERQFGVQENNITLGDLGEFELKGMRNRKAKSNLTLFHKKPVAGQTVIQIFNRFGYVKPSSRNPEVMKKKLFTTIKGGRLNNLGLTLNAKHASEINLYYQDEYLSTWDLNLSKIEKLVLVFAETIGRANSPEEQFHFTKAYMLTEINDITSLINDGVLVMDLCIDQDLSKSKGPHDRGPHLRIPISKLDKLYRNIERLL | soluble
MTRSRRGALARSSEGGPFPTADPVADRALCGWRVRSVIDLPELPLWTRDDRLPDVTIAFGRVTPVESASPGMNWHVVGEGRFRFTVASVGSYRISRGRVITIDPQAGVVASAVRQYLLGTAFGVLCHQRGLLPLHASCVAINGRAVAIAGASGAGKSSLAAALVRLGYPLLGDDVCVIDASEINAPHVLPAIPRLKLWRDVLDTFGLIVDPAARILEGIDKYQAQALADRPPPPPPQVPLPLGVVYYLDQAESPDDEGFHAIRGAERAAALAGAVYRRKMGLAMGLLPQIFTATMTVGALVPGHRLLRHGDLSGLDALARSVAARQEGRGLEHHHHHH | not soluble
MLVLNPFSEKAVSPEDRDMVLRRGIAALDCSWKKVKKSSVIFQTARNHRSLPFLVAANPTNYGKPCILSTAEAVAATLYIVGLKDIASDIMSYFKWGPHFLDLNRELLEAYSRAENSLEVVEIQKKFIGGLEHHHHHH | soluble
MGSDKIHHHHHHMTVQQFIKKLVRLVELERNAEINAMLDEMKRLSGEEREKKGRAVLGLTGKFIGEELGYFLVRFGRRKKIDTEIGVGDLVLISKGNPLKSDYTGTVVEKGERFITVAVDRLPSWKLKNVRIDLFASDITFRRQIENLMTLSSEGKKALEFLLGKRKPEESFEEEFTPFDEGLNESQREAVSLALGSSDFFLIHGPFGTGKTRTLVEYIRQEVARGKKILVTAESNLAVDNLVERLWGKVSLVRIGHPSRVSSHLKESTLAHQIETSSEYEKVKKMKEELAKLIKKRDSFTKPSPQWRRGLSDKKILEYAEKNWSARGVSKEKIKEMAEWIKLNSQIQDIRDLIERKEEIIASRIVREAQVVLSTNSSAALEILSGIVFDVVVVDEASQATIPSILIPISKGKKFVLAGDHKQLPPTILSEDAKDLSRTLFEELITRYPEKSSLLDTQYRMNELLMEFPSEEFYDGKLKAAEKVRNITLFDLGVEIPNFGKFWDVVLSPKNVLVFIDTKNRSDRFERQRKDSPSRENPLEAQIVKEVVEKLLSMGVKEDWIGIITPYDDQVNLIRELIEAKVEVHSVDGFQGREKEVIIISFVRSNKNGEIGFLEDLRRLNVSLTRAKRKLIATGDSSTLSVHPTYRRFVEFVKKKGTYVIF | not soluble
MDKKELVEKIALNTLVFETLGQPEKEREFTIQDLRRWGFDLILGKKNGVRTFFASQAGREVGDKWEEGGATYEIEEILLELPENKKLFAHIETSEGVAYIVAELREGKENLEILRTPAPTLLMAFFKKHRLHELANNLKSVGVITEFYKQRGRESLPLPYKKLPLVARDFLERAKKVEKMAGFGRVALAYFGKTREKDNRFRVSWLLPTIALFDIDISEKANTALEEFK | soluble
MSLKISKLKKNVVLKNGTIIDPFNNYEKKGDIHIENGKIKAVGKIPTPKSSEIIDCKNLNITHGFFDLHVHFREPGGEDKEDLNSGSLAALAGGFTGVCTMPNTNPPIDSPESIRYIIDRSEECPIYIYPIGSITKSQEGKELTEMGAMLSQGAVAFSDDGLPISDAGVMYNALDYSSMFDVPIINHAEDECLKQDSVMHEGEVSTHLGLPGSPDITESNMVFRDLELSIRAGARIHIPHVSSEKSVNHIKTMKKKSDRITAEVSPHHIFFCDEDLYSFDTNLKVAPPIRTKNDRKALIDALKNGIIDCIATDHAPHTIEEKEGTFDIAPFGMIGLESCFGAVNKVLTKDKKISHLELIKLLTVNPRKIMKLNQDLFKEGTNAEIAIYDPNIEWKFSLENIYSKSNNSPLFKEGHHHHHH | not soluble
LTNRGLKQVGWYLPAAQKTKKTAIVVHGFTNDKEDMKPYAMLFHDLGYNVLMPDNEAHGESEGNLIGYGWNDRLNVMAWTDQLIKENPESQITLFGLSMGAATVMMASGERLPAQVTSLIEDCGYASVWDELKFQAKAMYNLPAFPLLYEVSALSKIRAGFSYGEASSVKQLAKNKRPTLFIHGDKDDFVPTKMVYDNYKATKGPKEILIVKGAKHAKSFETNPEQYQKKIAAFLKKVEK | not soluble
